Laboratory results as given in patent US10012655B2, “Method for quantitating total HMGB1 protein in biological samples” (INSTITUT PASTEUR, priority 2008, dated 2018).

What was measured:
iDCs = assay: Phenotypic maturation of iDCs cultured with rh-HMGB1 or LPS (flow cytometry); format: cell-based, human
Method: FIG. 1 (a)-(e). aNK cells induce the maturation of primary immature HIV-1-infected DCs. (a) iDCs, generated from purified CD14^+ monocytes in the presence of IL-4 and GM-CSF, were cocultured during 24 h with aNK cells at different ratios. DC survival was determined by flow cytometry with the 7-AAD assay. Surviving DCs were identified as 7AAD^−CD56^− cells. Data represent three independent experiments and values are means±sd. (b) aNK cells induce the maturation of iDCs. Flow cytometry analysis of iDCs, which were either infected with R5-HIV-1 BaL (1 ng/ml of p24) for 3 h or uninfected, were incubated with rNK cells or aNK cells at a ratio of 1:5. Co-staining with HLA-DR and CD86 specific antibodies allowed the identification of mature DCs (CD86^brightHLA-DR^bright) Data from a representative experiment out of three independent experiments are shown. (c) The conditions of infection used in this study were those of a productive infection of iDCs, as shown at day 3 by a significant p24 detection in culture supernatant of infected iDCs and intracellular detection by flow cytometry of p24 in DC targeted by CD40 expression. […] The proportion of mDCs induced by LPS (DC0) (78.1% CD86^brightHLA-DR^bright) is shown as a positive control. […]
FIG. 3 (a)-(e). aNK-dependent maturation of HIV-1-infected iDCs is mediated by HMGB1 and involves RAGE. […] The maturation status of DCs was determined by flow cytometry with CD86 and HLA-DR—specific antibodies. […] Cells were then stained with anti-CD86, -HLA-DR, -CD80, -CD83, DC-LAMP and -CD40 antibodies and analyzed by flow cytometry. (c) Influence of rh-HMGB1 on cytokine and chemokine production (determined by MAP) by DCs. iDCs (10^6 cells/ml) were incubated for 48 h in medium or in presence of rh-HMGB1 (1 or 10 μg/ml). […] (e) iDC, DC0, uninfected or HIV-1-infected iDC cocultured for 24 h with aNK cells, were incubated with rh-HMGB1 (1 μg/ml) and subsequently stained with anti-RAGE antibodies and analyzed by flow cytometry. […]

RAGE = assay: Surface expression of RAGE on DCs (flow cytometry); format: cell-based, human; conditions: uninfected iDCs incubated with 1 μg/ml
Method: FIG. 3 (a)-(e). aNK-dependent maturation of HIV-1-infected iDCs is mediated by HMGB1 and involves RAGE. (a) Left panel: iDCs were cultured for 24 h either alone or with aNK cells, in the presence of blocking anti-HMGB1 antibodies (10 μg/ml) or glycyrrhizin (10 μg/ml). The maturation status of DCs was determined by flow cytometry with CD86 and HLA-DR—specific antibodies. Right panel: same experiment, but performed with HIV-1 infected iDCs. Data represent mean±sd of at least three independent experiments, and statistical comparisons were made with the non parametric Mann-Whitney test. * p<0.05. (b) iDC (10^6 cells/ml) were cultured for 48 h with increasing concentrations (1-10 μg/ml) of rh-HMGB1. Cells were then stained with anti-CD86, -HLA-DR, -CD80, -CD83, DC-LAMP and -CD40 antibodies and analyzed by flow cytometry. (c) Influence of rh-HMGB1 on cytokine and chemokine production (determined by MAP) by DCs. iDCs (10^6 cells/ml) were incubated for 48 h in medium or in presence of rh-HMGB1 (1 or 10 μg/ml). As a positive control, iDCs were stimulated with LPS (DC0). […] (e) iDC, DC0, uninfected or HIV-1-infected iDC cocultured for 24 h with aNK cells, were incubated with rh-HMGB1 (1 μg/ml) and subsequently stained with anti-RAGE antibodies and analyzed by flow cytometry. […]

B1: rh-HMGB1: recombinant human HMGB1 protein (R&D Systems) (protein, UniProt P09429 1-215, looked up)
High mobility group protein B1: MGKGDPKKPRGKMSSYAFFVQTCREEHKKKHPDASVNFSEFSKKCSERWKTMSAKEKGKFEDMAKADKARYEREMKTYIPPKGETKKKFKDPNAPKRPPSAFFLFCSEYRPKIKGEHPGLSIGDVAKKLGEMWNNTAADDKQPYEKKAAKLKEKYEKDIAAYRAKGKPDAAKKGVVKAEKSKKKKEEEEDEEDEEDEEEEEDEEDEDEEEDDDDE
iDCs; 10 μg/ml, 48 h of culture, medium alone 65%
  percentage of CD86bright HLA-DRbright DCs: 71%
iDCs; 24 h with 1 to 10 μg/ml, similar at 48 h
  phenotypic maturation of iDC: did not induce phenotypic maturation of iDC
iDCs; rh-HMGB1-treated DCs, 48 h, compared with DC0
  maturation status by CD80, CD83 and DC-lamp expression: not fully mature
RAGE
  RAGE surface expression: down-regulation of RAGE was observed
